These results are taken from patent publication US20230330033A1.

For this assay, the target named is CD40 (UniProt P25942). The assay can be described thus: cell-based or functional assay.

In the case of LOB7/6 (antibody), the EC50 of CD40 activation, bioluminescent reporter CHO cells was -1.47 log(µM).
